Laboratory results from US20200291444A1, “Macrocyclisation Tags” (Oxford University Innovation LTD, priority 2017, published 2020).

B1: S577A: GmPOPB catalytic triad mutant (protein)
chain: MSSVTWAPGNYPSTRRSDHVDTYQSASKGEVPVPDPYQWLEESTDEVDKWTTAQADLAQSYLDQNADIQKLAEKFRASRNYAKFSAPTLLDDGHWYWFYNRGLQSQSVLYRSKEPALPDFSKGDDNVGDVFFDPNVLAADGSAGMVLCKFSPDGKFFAYAVSHLGGDYSTIYVRSTSSPLSQASVAQGVDGRLSDEVKWFKFSTIIWTKDSKGFLYQRYPARERHEGTRSDRNAMMCYHKVGTTQEEDIIVYQDNEHPEWIYGADTSEDGKYLYLYQFKDTSKKNLLWVAELDEDGVKSGIHWRKVVNEYAADYNIITNHGSLVYIKTNLNAPQYKVITIDLSKDEPEIRDFIPEEKDAKLAQVNCANEEYFVAIYKRNVKDEIYLYSKAGVQLTRLAPDFVGAASIANRQKQTHFFLTLSGFNTPGTIARYDFTAPETQRFSILRTTKVNELDPDDFESTQVWYESKDGTKIPMFIVRHKSTKFDGTAAAIQYGYGGFATSADPFFSPIILTFLQTYGAIFAVPSIRGGGEFGEEWHKGGRRETKVNTFDDFIAAAQFLVKNKYAAPGKVAINGAANGGLLVMGSIVRAPEGTFGAAVPEGGVADLLKFHKFTGGQAWISEYGNPSIPEEFDYIYPLSPVHNVRTDKVMPATLITVNIGDGRVVPMHSFKFIATLQHNVPQNPHPLLIKIDKSWLGHGMGKPTDKNVKDAADKWGFIARALGLELKTVE
B2: D661A: GmPOPB catalytic triad mutant (protein, UniProt H2E7Q8 1-730, looked up, variant D661A)
Dual function …: MSSVTWAPGNYPSTRRSDHVDTYQSASKGEVPVPDPYQWLEESTDEVDKWTTAQADLAQSYLDQNADIQKLAEKFRASRNYAKFSAPTLLDDGHWYWFYNRGLQSQSVLYRSKEPALPDFSKGDDNVGDVFFDPNVLAADGSAGMVLCKFSPDGKFFAYAVSHLGGDYSTIYVRSTSSPLSQASVAQGVDGRLSDEVKWFKFSTIIWTKDSKGFLYQRYPARERHEGTRSDRNAMMCYHKVGTTQEEDIIVYQDNEHPEWIYGADTSEDGKYLYLYQFKDTSKKNLLWVAELDEDGVKSGIHWRKVVNEYAADYNIITNHGSLVYIKTNLNAPQYKVITIDLSKDEPEIRDFIPEEKDAKLAQVNCANEEYFVAIYKRNVKDEIYLYSKAGVQLTRLAPDFVGAASIANRQKQTHFFLTLSGFNTPGTIARYDFTAPETQRFSILRTTKVNELDPDDFESTQVWYESKDGTKIPMFIVRHKSTKFDGTAAAIQYGYGGFATSADPFFSPIILTFLQTYGAIFAVPSIRGGGEFGEEWHKGGRRETKVNTFDDFIAAAQFLVKNKYAAPGKVAINGASNGGLLVMGSIVRAPEGTFGAAVPEGGVADLLKFHKFTGGQAWISEYGNPSIPEEFDYIYPLSPVHNVRTDKVMPATLITVNIGAGRVVPMHSFKFIATLQHNVPQNPHPLLIKIDKSWLGHGMGKPTDKNVKDAADKWGFIARALGLELKTVE
B3: H698A: GmPOPB catalytic triad mutant (protein, UniProt H2E7Q8 1-730, looked up, variant H698A)
Dual function …: MSSVTWAPGNYPSTRRSDHVDTYQSASKGEVPVPDPYQWLEESTDEVDKWTTAQADLAQSYLDQNADIQKLAEKFRASRNYAKFSAPTLLDDGHWYWFYNRGLQSQSVLYRSKEPALPDFSKGDDNVGDVFFDPNVLAADGSAGMVLCKFSPDGKFFAYAVSHLGGDYSTIYVRSTSSPLSQASVAQGVDGRLSDEVKWFKFSTIIWTKDSKGFLYQRYPARERHEGTRSDRNAMMCYHKVGTTQEEDIIVYQDNEHPEWIYGADTSEDGKYLYLYQFKDTSKKNLLWVAELDEDGVKSGIHWRKVVNEYAADYNIITNHGSLVYIKTNLNAPQYKVITIDLSKDEPEIRDFIPEEKDAKLAQVNCANEEYFVAIYKRNVKDEIYLYSKAGVQLTRLAPDFVGAASIANRQKQTHFFLTLSGFNTPGTIARYDFTAPETQRFSILRTTKVNELDPDDFESTQVWYESKDGTKIPMFIVRHKSTKFDGTAAAIQYGYGGFATSADPFFSPIILTFLQTYGAIFAVPSIRGGGEFGEEWHKGGRRETKVNTFDDFIAAAQFLVKNKYAAPGKVAINGASNGGLLVMGSIVRAPEGTFGAAVPEGGVADLLKFHKFTGGQAWISEYGNPSIPEEFDYIYPLSPVHNVRTDKVMPATLITVNIGDGRVVPMHSFKFIATLQHNVPQNPHPLLIKIDKSWLGAGMGKPTDKNVKDAADKWGFIARALGLELKTVE

Test system: 25mer and 35mer substrates
Experiment: Activity of GmPOPB mutants with 25mer and 35mer substrates
Format: biochemical, Galerina marginata
Details: 5 μM GmPOPB, 24 h (16 h elsewhere in the source)
Description: Comparison between distinct GmPOPB substrates was performed in 50 mM Tris pH 8.0, 50 mM NaCl, 10 mM DTT with varying concentrations of substrates at room temperature. All reactions were performed in duplicates. […] Reactions were quenched at several time points by adding 50 μL reaction mixture to 20 μL 6% TFA. Reactants were separated from products for quantification by injecting 50 μL of each quenched time point mix onto a ZORBAX SB-C18, 5 μm, 9.4×50 mm (Agilent) column connected to an Agilent LC-MS (G6130B Single Quad, Agilent Technologies). Reactants were separated from products using a gradient from H2O containing 0.1% TFA or 0.1% formic acid and 5% acetonitrile to 50% acetonitrile, at 1.5 ml/min for 8 min. Peaks with ultra violet (UV) absorbance at 220 and 280 nm were integrated, the area of peaks corresponding to reactant and products was used to calculate the percentage of product formed after a correction for differences in the extinction coefficient of each peptide was applied (ε280-25mer=11,000M-1 cm-1, ε220-25mer=46,000M-1 cm-1, ε280-cyclic=5500M-1 cm-1, ε220-cyclic=34,000M-1 cm-1, and ε280-tail=5500M-1 cm-1). The sum of product+substrate was assumed equal to the total initial amount of substrate, product converted from % to concentration. This value was divided by concentration of enzyme present to yield v/Et (min-1). […] For progress curves with the 35mer substrate, measurements were triplicate and quantification relied on ion counts from mass spectrometry. […] Authentic macrocyclic peptide was quantified by UV absorbance. Data showing products formed after 1 and 16 h with truncated peptides were performed twice. […] Kinetic data were fitted to a Michaelis-Menten equation using GraphPad Prism, and values reported are average and standard error of the mean. […]
To study other residues involved in hydrolysis and macrocyclisation, additional mutants H698N, R663A, R663Q, R663K, and W695Δ (deletion) were generated. […] H698N was insoluble and not evaluated. […]

Row | Molecule | activity of GmPOPB mutant (in words)
1 | B1 | inactive
2 | B2 | inactive
3 | B3 | inactive
